Earlier results as cited in article PMC6314896 (Chembiochem : a European journal of chemical biology, 2018).

Tested on: trypsin
Conditions: both toxins under the same conditions

Substance | stability to trypsin (in words)
ProTx-II | completely stable
ProTx-I | degraded rapidly
